Data on two molecules can be found in article PMC5599796, “Structural insights into transcription initiation by yeast RNA polymerase I” (The EMBO Journal, 2017).

The target in one assay is T1, A135 (S. cerevisiae (endogenous in strain …, UniProt P22138 1-1203)).
T1 construct: A135, second largest subunit of yeast RNA polymerase I; Stood in the assay as a subunit of Pol I within the PIC; also called second largest subunit of Pol I; source: purified from S. cerevisiae strain SC1613 as a subunit of Pol I
T1 sequence (looked up): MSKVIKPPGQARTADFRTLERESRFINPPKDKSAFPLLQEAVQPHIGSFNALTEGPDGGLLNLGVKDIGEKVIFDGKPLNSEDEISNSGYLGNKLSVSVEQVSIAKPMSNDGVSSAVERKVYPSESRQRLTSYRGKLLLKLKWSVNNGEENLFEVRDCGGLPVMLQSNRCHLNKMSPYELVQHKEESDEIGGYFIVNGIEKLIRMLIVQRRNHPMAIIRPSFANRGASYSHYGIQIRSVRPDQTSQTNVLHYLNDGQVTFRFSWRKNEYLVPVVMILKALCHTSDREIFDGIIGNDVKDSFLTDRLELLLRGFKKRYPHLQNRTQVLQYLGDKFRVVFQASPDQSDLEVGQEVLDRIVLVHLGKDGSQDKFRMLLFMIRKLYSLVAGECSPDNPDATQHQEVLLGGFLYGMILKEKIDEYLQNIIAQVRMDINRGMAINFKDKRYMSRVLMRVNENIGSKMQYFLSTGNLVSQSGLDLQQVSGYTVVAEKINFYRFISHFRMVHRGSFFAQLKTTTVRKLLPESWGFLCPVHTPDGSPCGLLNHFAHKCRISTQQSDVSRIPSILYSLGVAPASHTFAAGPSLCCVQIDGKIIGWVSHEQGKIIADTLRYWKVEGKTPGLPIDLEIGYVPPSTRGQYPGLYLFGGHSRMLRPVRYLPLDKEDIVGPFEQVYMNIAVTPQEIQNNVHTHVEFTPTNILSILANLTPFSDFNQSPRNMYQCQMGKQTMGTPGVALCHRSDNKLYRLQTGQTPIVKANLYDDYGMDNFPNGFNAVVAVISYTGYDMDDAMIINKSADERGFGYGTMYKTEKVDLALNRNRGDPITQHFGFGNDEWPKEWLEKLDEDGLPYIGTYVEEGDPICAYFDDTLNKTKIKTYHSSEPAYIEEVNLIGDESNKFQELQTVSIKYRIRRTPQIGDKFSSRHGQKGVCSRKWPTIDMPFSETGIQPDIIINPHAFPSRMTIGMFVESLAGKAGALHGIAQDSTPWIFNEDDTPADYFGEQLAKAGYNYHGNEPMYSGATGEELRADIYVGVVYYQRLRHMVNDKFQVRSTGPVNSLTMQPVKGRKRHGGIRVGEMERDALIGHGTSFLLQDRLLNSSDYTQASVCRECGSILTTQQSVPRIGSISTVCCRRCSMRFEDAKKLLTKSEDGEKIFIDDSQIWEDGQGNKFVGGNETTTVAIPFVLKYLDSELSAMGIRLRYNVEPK
Nature of the assay: cryo-EM structure; Pol I (1.5 uM) and Rrn3 (3 uM) mixed 5 h at 4°C, then 70-bp transcription scaffold (-50 to +20, 15-nt mismatch, 10-nt RNA) 1 h, then CF (1.5 uM); dialysed from 300 to 100 mM potassium acetate, 50 mM HEPES-NaOH pH 7.5, 5 mM magnesium acetate, 10 mM DTT; 38,589 particles, 4.4 Å. The conditions noted are these: both partners purified.

For a further assay, the target named is T2, Rrn7 (yeast, UniProt P40992 1-514).
T2 construct: Rrn7, TFIIB-like subunit of yeast Core Factor; Stood in the assay as a subunit of CF within the Pol I PIC; also called CF subunit Rrn7; TFIIB-related subunit Rrn7; source: E. coli BL21(DE3)Star pRARE, co-expressed as Core Factor, purified
T2 sequence: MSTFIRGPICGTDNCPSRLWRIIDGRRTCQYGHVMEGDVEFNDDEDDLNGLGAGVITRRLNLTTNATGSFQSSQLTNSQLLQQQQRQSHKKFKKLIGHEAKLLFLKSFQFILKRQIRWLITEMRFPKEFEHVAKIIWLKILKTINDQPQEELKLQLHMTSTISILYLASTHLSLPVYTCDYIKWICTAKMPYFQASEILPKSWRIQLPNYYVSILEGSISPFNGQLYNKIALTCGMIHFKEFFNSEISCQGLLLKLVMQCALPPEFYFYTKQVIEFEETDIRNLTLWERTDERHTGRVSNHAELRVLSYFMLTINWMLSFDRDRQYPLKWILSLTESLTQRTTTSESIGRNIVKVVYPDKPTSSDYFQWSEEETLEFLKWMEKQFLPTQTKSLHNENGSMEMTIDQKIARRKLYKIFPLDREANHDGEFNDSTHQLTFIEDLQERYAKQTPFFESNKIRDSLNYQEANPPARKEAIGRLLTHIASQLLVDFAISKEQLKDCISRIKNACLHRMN
Description: cross-linking; purified Pol I PIC (50 ug, 1 mg/ml) with H12/D12 DSS at 2 and 5 mM, 30 min at 37°C; LC-MS/MS, xQuest, LD score at least 23. The note with it: both partners purified.

B1: Rrn11 (natural protein, yeast)
chain: MFEVPITLTNRKFAQRRKLKYQYINYISRRFDRISKKSTTTDSLPTPENSAAENNDEEEGQNSEAGTYRRSVLQQKKRRRERHWRSVVGEIYSTTESETDSQEEETEEGGEHDTGIDKEDSDEERKFWKKYEKPEKSFEIWRTVSSQNKQPINKQKMTYHNFKKIEKIPLRKMEIPLLHCTKENKLYFQSISRGLEPLKTSTSEVRNYRTRHIVTLTDLLHLNVSRHNWSLAYKIFATLIRIPGVQIKSLWGIGVEILDNLSNSSSGLDFLQWMCQIYSSKSRFVQNINYRSIVPPFQTGSRTHTAKFAITYLWSSLINCQKSMEPSSNIIDKPFDTENDLLQELIDKISEWVLTPPFMEDAEVWFIYASCHLLKADTLSRQFVNDNKNNDLIGLDRDIKINQVIKHIHYVRTFLKICLDKGGFAVPSRLIENQLKSFESRLYGEAQDIQERDVANVYDSIDNSSVENSFGDVYETNAEFLDTQLMDLSPEDNGLDEMHYSDEDSSE
notes: Rrn11, subunit of yeast Core Factor; Stood in the assay as a subunit of CF within the Pol I PIC; also called CF subunit Rrn11; source: E. coli BL21(DE3)Star pRARE, co-expressed as Core Factor, purified
B1: in the assay with A135, the binding result was “binds”.

B2: Rpb12 (natural protein, UniProt P40422 1-70, looked up)
chain: MSREGFQIPTNLDAAAAGTSQARTATLKYICAECSSKLSLSRTDAVRCKDCGHRILLKARTKRLVQFEAR
notes: Rpb12, subunit of yeast RNA polymerase I; Stood in the assay as a subunit of Pol I within the PIC; source: purified from S. cerevisiae strain SC1613 as a subunit of Pol I
B2: the binding result with Rrn7 was “binds”.
